Reference: paper PMC3949714 (PLoS ONE, 2014)

Key:
[1] = Biotransformation in homogenised inflamed tissue at pH 5.5 (LC/MS, mean residence time); conditions: MES pH 5.5, 37°C, 120 min, AUMC/AUC of LC/MS peak intensity
[2] = RP-HPLC retention time (read by the paper as polarity); assay type: physicochemical; conditions: water/acetonitrile gradient with 0.1% formic acid, MS TIC detection
Procedure: An Agilent binary HPLC composing of an Agilent 1100 LC pump, an Agilent 1100 well plate auto-sampler (Agilent Technologies, Santa Clara, CA, USA) and a Jupiter 5 μ (C4, 300 A, 150×2.00 mm, 5 μ) RP HPLC column (Phenomenex, Torrance, CA, USA) were used for separation. The mobile phase flow rate was 200 µl/min and the volume of injection was 20 µL. The separations were performed using a binary solvent gradient; water (Milli-Q; Millipore Corporation, Bedford, MA) which contained 0.1% v/v formic acid was used as the solvent A and acetonitrile (Merck KGaA, Darmstadt, Germany) which contained 0.1% v/v formic acid (Nuplex industries Pty Ltd. (NSW, Australia) was used as the solvent B. The chromatographic separation was achieved using the gradient shown in Table 1.
An API 3000 tandem mass spectrometer equipped with a turbo ion spray was used as the detector. Detection was performed in total ion current (TIC) mode (MS1/Q1), in positive mode, within the range 200–3000 amu. The data were acquired and processed by Analyst 1.5 software (Applied Biosystems, Foster city, CA, USA). Mass spectra were obtained using: declustering potential (DF) of 16 V, focusing potential (FP) of 120 V, Entrance potential (EP) of 10 V, and Ion spray voltage (IS) of 5000 V. Structure identity of fragments was performed using the respective mass/charge (m/z) values of each peptide metabolite. Direct flow injections were carried out using Model 11 plus Harvard Syringe pump (Harvard Apparatus Inc, Holliston, MA, USA).

[3] = incubation of BE 1-31 (115 µM) in rat inflamed tissue homogenate
[4] = incubation of BE 1-31, Jupiter C4 300 A column, 200 µl/min
[5] = incubation of BE 1-17, Jupiter C4 column
[6] = incubation of BE 1-17 (115 µM) in rat inflamed tissue homogenate
[7] = incubation of BE 1-11 (115 µM) in rat inflamed tissue homogenate
[8] = incubation of BE 1-11, Jupiter C4 column
[9] = incubation of BE 1-13 (115 µM) in rat inflamed tissue homogenate
[10] = incubation of BE 1-13, Jupiter C4 column

Substance | MRT [1, 3] | RT [2, 4] [min] | RT [2, 5] [min] | further results
BE 10-18: beta-endorphin fragment, residues 10-18 (SQTPLVTLF; Beta-endorphin; UniProt P01189 246-254, looked up, fragment) | 13.3 | 28.2 | – | –
BE 6-31: beta-endorphin fragment, residues 6-31 (TSEKSQTPLVTLFKNAIIKNAYKKGE; Beta-endorphin; UniProt P01189 242-267, looked up, fragment) | 40 | 24.7 | – | –
BE 3-14: beta-endorphin fragment, residues 3-14 (GFMTSEKSQTPL; Beta-endorphin; UniProt P01189 239-250, looked up, fragment) | – | – | 20.1 | –
BE 3-17: beta-endorphin fragment, residues 3-17 (GFMTSEKSQTPLVTL; Beta-endorphin; UniProt P01189 239-253, looked up, fragment) | – | – | 24 | MRT [1, 6]: 6.2
BE 2-15: beta-endorphin fragment, residues 2-15 (GGFMTSEKSQTPLV; Beta-endorphin; UniProt P01189 238-251, looked up, fragment) | – | – | 21.33 | –
BE 5-24: beta-endorphin fragment, residues 5-24 (MTSEKSQTPLVTLFKNAIIK; Beta-endorphin; UniProt P01189 241-260, looked up, fragment) | 25.1 | 19 | – | –
BE 4-11: beta-endorphin fragment, residues 4-11 (FMTSEKSQ; Beta-endorphin; UniProt P01189 240-247, looked up, fragment) | – | – | – | MRT [1, 7]: 22.7; Rt [2, 8]: 13.8 min
BE 3-16: beta-endorphin fragment, residues 3-16 (GFMTSEKSQTPLVT; Beta-endorphin; UniProt P01189 239-252, looked up, fragment) | – | – | 20.43 | MRT [1, 6]: 11
BE 20-31: beta-endorphin C-terminal fragment, residues 20-31 (NAIIKNAYKKGE; Beta-endorphin; UniProt P01189 256-267, looked up, fragment) | 72.2 | 14.3 | – | –
BE 5-16: beta-endorphin fragment, residues 5-16 (MTSEKSQTPLVT; Beta-endorphin; UniProt P01189 241-252, looked up, fragment) | – | – | 16.92 | MRT [1, 6]: 13.2
BE 4-14: beta-endorphin fragment, residues 4-14 (FMTSEKSQTPL; Beta-endorphin; UniProt P01189 240-250, looked up, fragment) | – | – | 18.68 | –
BE 20-28: beta-endorphin intermediate fragment, residues 20-28 (NAIIKNAYK; Beta-endorphin; UniProt P01189 256-264, looked up, fragment) | 87.6 | 16.1 | – | –
BE 2-14: beta-endorphin fragment, residues 2-14 (GGFMTSEKSQTPL; Beta-endorphin; UniProt P01189 238-250, looked up, fragment) | 25.1 | 22.2 | 20.1 | MRT [1, 6]: 18.9
BE 6-14: beta-endorphin fragment, residues 6-14 (TSEKSQTPL; Beta-endorphin; UniProt P01189 242-250, looked up, fragment) | – | – | 14.62 | –
BE 10-28: beta-endorphin fragment, residues 10-28 (SQTPLVTLFKNAIIKNAYK; Beta-endorphin; UniProt P01189 246-264, looked up, fragment) | 32.3 | 26.9 | – | –
BE 4-16: beta-endorphin fragment, residues 4-16 (FMTSEKSQTPLVT; Beta-endorphin; UniProt P01189 240-252, looked up, fragment) | – | – | 19.32 | –
BE 3-13: beta-endorphin fragment, residues 3-13 (GFMTSEKSQTP; Beta-endorphin; UniProt P01189 239-249, looked up, fragment) | – | – | – | MRT [1, 9]: 16.1; Rt [2, 10]: 17.2 min
BE 7-16: beta-endorphin fragment, residues 7-16 (SEKSQTPLVT; Beta-endorphin; UniProt P01189 243-252, looked up, fragment) | – | – | 16 | –
BE 18-31: beta-endorphin fragment, residues 18-31 (FKNAIIKNAYKKGE; Beta-endorphin; UniProt P01189 254-267, looked up, fragment) | 18.1 | 16.1 | – | –
BE 3-11: beta-endorphin fragment, residues 3-11 (GFMTSEKSQ; Beta-endorphin; UniProt P01189 239-247, looked up, fragment) | – | – | 21.48 | MRT [1, 7]: 14; Rt [2, 8]: 15.4 min
BE 15-24: beta-endorphin fragment, residues 15-24 (VTLFKNAIIK; Beta-endorphin; UniProt P01189 251-260, looked up, fragment) | 25.2 | 22.44 | – | –
BE 10-24: beta-endorphin fragment, residues 10-24 (SQTPLVTLFKNAIIK; Beta-endorphin; UniProt P01189 246-260, looked up, fragment) | 11.3 | 28.2 | – | –
BE 19-30: beta-endorphin fragment, residues 19-30 (KNAIIKNAYKKG; Beta-endorphin; UniProt P01189 255-266, looked up, fragment) | 72.2 | 14.3 | – | –
BE 7-14: beta-endorphin fragment, residues 7-14 (SEKSQTPL; Beta-endorphin; UniProt P01189 243-250, looked up, fragment) | – | – | 14.92 | –
BE 2-12: beta-endorphin fragment, residues 2-12 (GGFMTSEKSQT; Beta-endorphin; UniProt P01189 238-248, looked up, fragment) | – | – | – | MRT [1, 9]: 18.1; Rt [2, 10]: 16.2 min
BE 2-9: des-tyrosine beta-endorphin fragment, residues 2-9 (GGFMTSEK; Beta-endorphin; UniProt P01189 238-245, looked up, fragment) | 20 | 18.38 | 15.87 | MRT [1, 7]: 17; MRT [1, 9]: 19.8; MRT [1, 6]: 21; Rt [2, 8]: 15.8 min; Rt [2, 10]: 15.8 min
BE 8-14: beta-endorphin fragment, residues 8-14 (EKSQTPL; Beta-endorphin; UniProt P01189 244-250, looked up, fragment) | – | – | 16.27 | –
BE 3-12: beta-endorphin fragment, residues 3-12 (GFMTSEKSQT; Beta-endorphin; UniProt P01189 239-248, looked up, fragment) | – | – | 20.53 | –
BE 4-15: beta-endorphin fragment, residues 4-15 (FMTSEKSQTPLV; Beta-endorphin; UniProt P01189 240-251, looked up, fragment) | – | – | 20.13 | –
BE 29-31: beta-endorphin fragment, residues 29-31 (KGE; Beta-endorphin; UniProt P01189 265-267, looked up, fragment) | – | 5.4 | – | –
